Reference: US6168954A, “Soybean glutathione-S-transferase enzymes” (E. I. du Pont de Nemours & Company, priority 1999, dated 2001)

B1: se6.pk0048.d7: soybean type III GST encoded by cDNA insert in clone se6.pk0048.d7 (protein)
chain: MADEVVLLDFWPSPFGMRVRIALAEKGIKYESKEEDLQNKSPLLLKMNPVHKKIPVLIHNGKPICESLVAVQYIEEVWNDRNPLLPSDPYQRAQARFWADFVDNKIFDLGRKIWTSKGEEKEAAKKEFIEALKLLEEQLGDKTYFGGDDLGFVDIALIPFDTWFKTFGSLNIESECPKFVAWAKRCLQKDSVAKSLPDQHKVYEFIMDIRKKFDIE
B2: ssl.pk0005.e6: soybean type III GST encoded by cDNA insert in clone ss1.pk0005.e6 (protein)
chain: MTDEVVLLDFWPSPFGMRVRIALAEKGIEYEYKEEDLRNKSPLLLQMNPVHKKIPVLIHNGKPISESLIAVQYIEEVWNDRNPLLPSDPYQRAQARFWADYVDIKIHDLGKKIWTSKGEEKEAAKKEFIEALKLLEEQLGDKTYFGGDNIGFVDIALVPFYTWFKVYETFGSLNIENECPRFVAWAKRCLQKESVAKSLPDQHKVYEFVVEIRKKLVIE
B3: GST-A: soybean type III GST encoded by cDNA insert in clone GSTa (protein)
chain: MSDEVVLLDFWPSPFGMRVRIALAEKGIKYEYKEEDLRNKSPLLLQMNPVHKKIPVLIHNGKPICESLIAVQYIEEVWNDRNPLLPSDPYQRAQTRFWADYVDKKIYDLGRKIWTSKGEEKEAAKKEFIEALKLLEEQLGDKTYFGGDNLGFVDIALVPFYTWFKAYETFGTLNIEECPKFIAWAKRCLQKESVAKSLPDQQKVYEFIMDLRKKLGIE
B4: ssl.pk0020.b10: soybean type III GST encoded by cDNA insert in clone ss1.pk0020.b10 (protein)
chain: MAEQDKVILHGMWASPYAKRVELALNFKGIPYEYVEEDLRNKSDLLLKYNPVHKKVPVLVHNGKAIAESMVILEYIDETWKDGPKLLPSDSYKRAQARFWCHFIQDQLMESTFLVVKTDGEAQQKAIDHVYEKLKVLEDGMKTYLGEGNAIISGVENNFGILDIVFCALYGAYKAHEEVIGLKFIVPEKFPVLFSWLMAIAEVEAVKIATPPHEKTVGILQLFRLSALKSSSATE
B5: ssm.pk0067.g5: soybean type III GST encoded by cDNA insert in clone ssm.pk0067.g5 (protein)
chain: MASYHEEEVRLLGKWASPFSNRVDLALKLKGVPYKYSEEDLANKSADLLKYNPVHKKVPVLVHNGNPLPESLIIVEYIDETWKNNPLLPQDPYERALARFWSKTLDDKILPAIWNACWSDENGREKAVEEALEALKILQETLKDKKFFGGESIGLVDIAANFIGYWVAILQEIAGLELLTIEKFPKLYNWSQDFINHPVIKEGLPPRDELFAFFKASAKK
B6: ses8w.pk0028.c6: soybean type III GST encoded by cDNA insert in clone ses8w.pk0028.c6 (protein)
chain: MAANQEDVKLLGATGSPFVCRVQIALKLKGVQYKFLEENLRNKSELLLKSNPVHKKVPVFIHNEKPIAESLVIVEYIDETWKNNPILPSDPYQRALARFWSKFIDDKVVGAAWKYIYTVDEKEREKNVEESYEALQFLENELKDKKFFGGEEIGLVDIAAVFIAFWIPIIQEVLGLKLFTSEKFPKLYKWSQEFINHPVVKQVLPPRDQLFAFYKACHESLSASK
B7: se6.pk0037.h4: soybean type III GST encoded by cDNA insert in clone se6.pk0037.h4, expressed in E. coli (protein)
chain: MAATQEDVTLLGVVGSPFVCRVQIALKLKGIECKFLEENLANKSDLLLKSNPVYKKVPVFIHNEKPIAESLVIVEYIDETWKNNPILPSDPYQRSFARFWSKFIDDKIVGASWKSVFTVDEKEREKNVEESLEALQFLENELQDKRFFGGDEFGFVDIAGVFIAFSIPIFQEVAGLQLFTSEKFPKLFKWSQELINHPVVKDVLPPREPLFAFFKSLYESLSASK
B8: ssl.pk0002.f7: soybean type III GST encoded by cDNA insert in clone ss1.pk0002.f7 (protein)
chain: MADGVVLLDTWASMFGMRVRIALAEKGVEYEYKEENLRNKSPLLLQMNPIHKKIPVLIHNGKPICESAIIVQYIDEVWNDKAPILPSDPYERAQARFWVDYIDKKVYDTWRKMWLSKGEEHEAGKKEFISIFKQLEETLSDKAYYGSDTFGFLDIGLIPFYSWFYTFETYGNFKMEEECPKLVAWAKRCMQREAVSKSLS
B9: se3.03b09: soybean type III GST encoded by cDNA insert in clone se3.03b09 (protein)
chain: MSKSEDLKLLGGWFSPFALRVQIALNLKGLEYEVVEETLNPKSDLLLKSNPVHKKIPVFFHGDKVICESAIIVEYIDEAWTNVPSILPQNAYDRANARFWFAYIDEKWFTSLRSVLVAEDDEAKKPHFEQAEEGLERLEEVFNKYSEGKAYFGGDSIGFIDIGFGSFLSWMRVIEEMSGRKLLDEKKHPGLTQWAETFAADPAVKGILPETDKLVEFAKILQLKWTAAAAAAAK

Assay: GST conjugation activity with alachlor (HPLC)
Type: biochemical
Settings: 0.4 mM electrophilic substrate, 4 mM glutathione, 0.1 M MOPS pH 7.0, corrected for uncatalyzed reaction
Description: (§1) The GST enzymes, expressed and purified as described in Example 5 were screened for their ability to metabolize a variety of substrates. Substrates tested included the three herbicide electrophilic substrates chlorimuron ethyl, alachlor, and Atrazine, and four model electrophilic substrates, 1-chloro-2, 4-dinitro-benzene (CDNB), ethacrynic acid, t-stilbene oxide, and 1,2-epoxy-3-(p-nitro-phenoxy) propane. The enzymes were purified as described in Example 5 and used in the following assay.
(§2) For each enzyme, the conjugation reaction with each electrophilic substrate was performed by incubating 0.3 to 30 μg enzyme in 0.1 M MOPS (pH 7.0) containing 0.4 mM of the electrophilic substrate. The reaction was inititated by the addition of glutathione to a final concentration of 4 mM. After 5 to 30 min, the reaction was terminated by the addition of 45 μL acetonitrile, microfuged for 10 min to remove precipitated protein, and then the supematent was removed and added to 65 μL of water. This sample was chromatographed on a Zorbax C8 reverse phase HPLC column (3 μm particle size, 6.2 mm×8 cm) using a combination of linear gradients (flow=1.5 mL/min) of 1% H3 PO4 in water (solvent A) and 1% H3 PO4 in acetonitile. The gradient started with 5% solvent B, progressing from 5% to 75% solvent B between 1 and 10 min, and from 75% to 95% solvent B between 10 and 12 min. Control reactions without enzyme were performed to correct for uncatalyzed reaction. Quantitation of metabolites were based on an assumption that the extinction coefficient of the conjugate was identical to that of the electrophilic substrate.
(§3) Activities are related to the activity of a known and previously isolated and purified GST enzyme, GH2/4 (also called GST 26) (Czarnecka et al., Plant Molecular Biology 3:45-58 (1984); Ulmasoz et al., Plant Physiol 108:919-927 (1995)).

| Molecule | Activity of soybean GST enzyme, Alachlor [nmol/min/mg] |
| --- | --- |
| B1 | 8 |
| B2 | 166 |
| B3 | 71 |
| B4 | 7 |
| B5 | 4 |
| B6 | 10 |
| B7 | 1 |
| B8 | 30 |
| B9 | 168 |

Assay: GST conjugation activity with CDNB (HPLC)
Type: biochemical
Settings: 0.4 mM electrophilic substrate, 4 mM glutathione, 0.1 M MOPS pH 7.0, corrected for uncatalyzed reaction
Description: as §1, §2, §3

| Molecule | Activity of soybean GST enzyme, CDNB [nmol/min/mg] |
| --- | --- |
| B1 | 1379 |
| B2 | 2030 |
| B3 | 1924 |
| B4 | 470 |
| B5 | 1394 |
| B6 | 515 |
| B7 | 2364 |
| B8 | 2576 |
| B9 | 14364 |

Assay: GST conjugation activity with Atrazine (HPLC)
Type: biochemical
Settings: 0.4 mM electrophilic substrate, 4 mM glutathione, 0.1 M MOPS pH 7.0, corrected for uncatalyzed reaction
Description: as §1, §2, §3

| Molecule | Activity of soybean GST enzyme, Atrazine [nmol/min/mg] |
| --- | --- |
| B1 | 0.76 |
| B2 | 0.00 |
| B3 | 0.03 |
| B4 | 0.03 |
| B5 | 0.03 |
| B6 | 1.40 |
| B7 | 0.19 |
| B8 | 0.00 |

Assay: GST conjugation activity with chlorimuron ethyl (HPLC)
Type: biochemical
Settings: 0.4 mM electrophilic substrate, 4 mM glutathione, 0.1 M MOPS pH 7.0, corrected for uncatalyzed reaction
Description: as §1, §2, §3

| Molecule | Activity of soybean GST enzyme, Chlorimuron Ethyl [nmol/min/mg] |
| --- | --- |
| B1 | 0.5 |
| B2 | 1.4 |
| B3 | 0.5 |
| B4 | 0.1 |
| B5 | 0.1 |
| B6 | 0.2 |
| B7 | 0.1 |
| B8 | 0.9 |
| B9 | 4.4 |

Assay: GST conjugation activity with 1,2-epoxy-3-(p-nitrophenoxy)propane (HPLC)
Type: biochemical
Settings: 0.4 mM electrophilic substrate, 4 mM glutathione, 0.1 M MOPS pH 7.0, corrected for uncatalyzed reaction
Description: as §1, §2, §3

| Molecule | Activity of soybean GST enzyme, 1,2-epoxy-3-(p-nitrophenoxy)propane [nmol/min/mg] |
| --- | --- |
| B1 | 9 |
| B2 | 4 |
| B3 | 22 |
| B4 | 47 |
| B5 | 19 |
| B6 | 12 |
| B7 | 1 |
| B8 | 10 |
| B9 | 20 |

Assay: GST conjugation activity with ethacrynic acid (HPLC)
Type: biochemical
Settings: 0.4 mM electrophilic substrate, 4 mM glutathione, 0.1 M MOPS pH 7.0, corrected for uncatalyzed reaction
Description: as §1, §2, §3

| Molecule | Activity of soybean GST enzyme, Ethacrynic Acid [nmol/min/mg] |
| --- | --- |
| B1 | 4 |
| B2 | 11 |
| B3 | 109 |
| B4 | 14 |
| B5 | 13 |
| B6 | 17 |
| B7 | 13 |
| B8 | 68 |
| B9 | 1 |

Assay: GST conjugation activity with t-stilbene oxide (HPLC)
Type: biochemical
Settings: 0.4 mM electrophilic substrate, 4 mM glutathione, 0.1 M MOPS pH 7.0, corrected for uncatalyzed reaction
Description: as §1, §2, §3

| Molecule | Activity of soybean GST enzyme, T-Stilbene Oxide [nmol/min/mg] |
| --- | --- |
| B1 | 0.07 |
| B2 | 0.06 |
| B3 | 0.06 |
| B4 | 0.02 |
| B5 | 0.49 |
| B6 | 4.04 |
| B7 | 0.06 |
| B8 | 0.16 |
| B9 | 0.07 |
